Source: publication PMC4570275

Target: Glucocorticoid-induced TNFR-related protein (GITR) (mouse (endogenous in CD4+ T cells of mice)) (UniProt O35714)
Chain of UniProt O35714 (O35714 20-228): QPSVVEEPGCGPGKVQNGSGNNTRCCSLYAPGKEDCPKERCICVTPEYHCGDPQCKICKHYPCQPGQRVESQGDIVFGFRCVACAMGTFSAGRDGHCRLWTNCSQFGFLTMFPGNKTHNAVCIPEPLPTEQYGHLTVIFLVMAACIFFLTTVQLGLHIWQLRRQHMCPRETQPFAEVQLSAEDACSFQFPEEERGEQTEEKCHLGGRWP

## His-tagged recombinant mouse GITR Ligand (from UniProt Q7TS55 1-173)
  percent Foxp3+ T cells by flow cytometry: OT-II CD4+ T cells activated with OVA and autologous APCs, TGF-β and IL-2, 3 days; >60% without GITR stimulation: 10%
  percent Foxp3+ T cells by flow cytometry: WT B6 naive CD4+ T cells activated 3 days under iTreg-polarizing conditions with His-GITR Ligand (200 ng/ml plus anti-His mAb); ∼65% without GITR ligation: 4%
  percent IL-9+ Th9 cells by flow cytometry: WT B6 naive CD4+ T cells activated 3 days under iTreg-polarizing conditions with GITR ligation: 30%
